Laboratory results from article PMC6269467 (Nature Communications, 2018).

Assays:
[1] = molecular target: the molecule itself; assay: crystal structure; αNcat-ABD-H1 crystal forms A (P6522, 2.2 Å) and B (P212121, 2.8 Å), grown at 277 K by vapor diffusion
[2] = molecular target: T1, filamentous actin (F-actin) from rabbit skeletal muscle (rabbit, UniProt P68135 1-377); assay: BLI; F-actin immobilised on Streptavidin (SA) biosensors through LAbio peptide; αcat-ABD in solution at various concentrations; 26 °C, Octet384; 2 mM Tris-HCl pH 8.0, 0.2 mM ATP, 0.5 mM DTT, 0.1 mM CaCl2, 50 mM KCl, 2 mM MgCl2, 0.1% BSA, 0.02% Tween-20; 2:1 heterogeneous ligand model; details: both partners purified
[3] = molecular target: T1, filamentous actin (F-actin) from rabbit …; assay: BLI; as a2 but Super-Streptavidin (SSA) biosensors with increased streptavidin density, used for αEcat-ABD-H1; 1:1 binding model; details: both partners purified
[4] = molecular target: T1, filamentous actin (F-actin) from rabbit …; assay: co-sedimentation; actin cosedimentation at high RCF: 5 μM ABD and 5 μM actin in 50 μL Buffer-F, 1 h at RT, Airfuge ≥100,000×g 20 min at RT; supernatant and pellet by SDS-PAGE with coomassie, band intensity by ImageJ; details: both partners purified

Row | Binder | binding result [1] | KD1 (2:1 heterogeneous ligand model) [2] [µM] | KD2 (2:1 heterogeneous ligand model) [2] [µM] | koff1 (2:1 heterogeneous ligand model) [2] [s⁻¹] | koff2 (2:1 heterogeneous ligand model) [2] [s⁻¹] | kon1 (2:1 heterogeneous ligand model) [2] [M⁻¹ s⁻¹] | kon2 (2:1 heterogeneous ligand model) [2] [M⁻¹ s⁻¹] | Kd [3] [nM] | koff [3] [s⁻¹] | kon [3] [M⁻¹ s⁻¹] | reduction in the amount of ABD cosedimenting with F-actin compared to αEcat-ABD-WT [4] [%]
1 | αN-catenin actin-binding domain with the helix-1 mutation (αNcat-ABD-H1) (domain or fragment, mouse, UniProt Q61301-2 651-905, looked up, The substitution is printed in αN-catenin's own numbers; PDB 4K1O is the wild-type parent; 6DUW (form A) and 6DUY (form B) are this construct; also called αN-catenin ABD-H1; αN-H1; source: E. coli BL21-CodonPlus, purified (glutathione-sepharose, thrombin cleavage, Superdex 75); 15N-labelled in M9 minimal media for NMR; not shown: GST, N-terminal, cleaved) SRTSVQTEDDQLIAGQSAGSGSAQLPQEEKAKIAEQVEIFHQEKSKLDAEVAKWDDSGNDIIVLAKQMCMIMMEMTDFTRGKGPLKNTSDVINAAKKIAEAGSRMDKLARAVADQCPDSACKQDLLAYLQRIALYCHQLNICSKVKAEVQNLGGELIVSGLDSATSLIQAAKNLMNAVVLTVKASYVASTKYQKVYGTAAVNSPVVSWKMKAPEKKPLVKREKPEEFQTRVRRGSQKKHISPVQALSEFKAMDSF | binds |  |  |  |  |  |  |  |  |  | 
2 | αE-catenin actin-binding domain, wild type (αEcat-ABD-WT; residues 652-906) (domain or fragment, source: E. coli BL21-CodonPlus, purified (glutathione-sepharose, thrombin cleavage, Superdex 75); not shown: GST, N-terminal, cleaved) SRTSVQTEDDQLIAGQSARAIMAQLPQEQKAKIAEQVASFQEEKSKLDAEVSKWDDSGNDIIVLAKQMCMIMMEMTDFTRGKGPLKNTSDVISAAKKIAEAGSRMDKLGRTIADHCPDSACKQDLLAYLQRIALYCHQLNICSKVKAEVQNLGGELVVSGVDSAMSLIQAAKNLMNAVVQTVKASYVASTKYQKSQGMASLNLPAVSWKMKAPEKKPLVKREKQDETQTKIKRASQKKHVNPVQALSEFKAMDSI |  | 2 | 0.3 | 0.465 | 0.00964 | 234000 | 31900 |  |  |  | 
3 | αE-catenin actin-binding domain with the helix-1 mutation (αEcat-ABD-H1; RAIM670-673GSGS) (domain or fragment, source: E. coli BL21-CodonPlus, purified (glutathione-sepharose, thrombin cleavage, Superdex 75); not shown: GST, N-terminal, cleaved) SRTSVQTEDDQLIAGQSAGSGSAQLPQEQKAKIAEQVASFQEEKSKLDAEVSKWDDSGNDIIVLAKQMCMIMMEMTDFTRGKGPLKNTSDVISAAKKIAEAGSRMDKLGRTIADHCPDSACKQDLLAYLQRIALYCHQLNICSKVKAEVQNLGGELVVSGVDSAMSLIQAAKNLMNAVVQTVKASYVASTKYQKSQGMASLNLPAVSWKMKAPEKKPLVKREKQDETQTKIKRASQKKHVNPVQALSEFKAMDSI |  |  |  |  |  |  |  | 580 | 0.264 | 455000 | 
4 | αEcat-ABD 3A (L785A, I792A and V796A together) (domain or fragment, source: E. coli BL21-CodonPlus, purified (glutathione-sepharose, thrombin cleavage, Superdex 75); not shown: GST, N-terminal, cleaved) SRTSVQTEDDQLIAGQSARAIMAQLPQEQKAKIAEQVASFQEEKSKLDAEVSKWDDSGNDIIVLAKQMCMIMMEMTDFTRGKGPLKNTSDVISAAKKIAEAGSRMDKLGRTIADHCPDSACKQDLLAYLQRIAAYCHQLNACSKAKAEVQNLGGELVVSGVDSAMSLIQAAKNLMNAVVQTVKASYVASTKYQKSQGMASLNLPAVSWKMKAPEKKPLVKREKQDETQTKIKRASQKKHVNPVQALSEFKAMDSI |  | 38.4 | 6.1 | 0.799 | 0.00849 | 20800 | 1400 |  |  |  | 78
5 | αEcat-ABD I792A (domain or fragment, source: E. coli BL21-CodonPlus, purified (glutathione-sepharose, thrombin cleavage, Superdex 75); not shown: GST, N-terminal, cleaved) SRTSVQTEDDQLIAGQSARAIMAQLPQEQKAKIAEQVASFQEEKSKLDAEVSKWDDSGNDIIVLAKQMCMIMMEMTDFTRGKGPLKNTSDVISAAKKIAEAGSRMDKLGRTIADHCPDSACKQDLLAYLQRIALYCHQLNACSKVKAEVQNLGGELVVSGVDSAMSLIQAAKNLMNAVVQTVKASYVASTKYQKSQGMASLNLPAVSWKMKAPEKKPLVKREKQDETQTKIKRASQKKHVNPVQALSEFKAMDSI |  | 4 | 0.6 | 0.945 | 0.00881 | 234000 | 14500 |  |  |  | 36
6 | αEcat-ABD L785A (domain or fragment, source: E. coli BL21-CodonPlus, purified (glutathione-sepharose, thrombin cleavage, Superdex 75); not shown: GST, N-terminal, cleaved) SRTSVQTEDDQLIAGQSARAIMAQLPQEQKAKIAEQVASFQEEKSKLDAEVSKWDDSGNDIIVLAKQMCMIMMEMTDFTRGKGPLKNTSDVISAAKKIAEAGSRMDKLGRTIADHCPDSACKQDLLAYLQRIAAYCHQLNICSKVKAEVQNLGGELVVSGVDSAMSLIQAAKNLMNAVVQTVKASYVASTKYQKSQGMASLNLPAVSWKMKAPEKKPLVKREKQDETQTKIKRASQKKHVNPVQALSEFKAMDSI |  | 27.8 | 4.8 | 0.69 | 0.0107 | 24900 | 2210 |  |  |  | 75
7 | αEcat-ABD V714A (domain or fragment, source: E. coli BL21-CodonPlus, purified (glutathione-sepharose, thrombin cleavage, Superdex 75); not shown: GST, N-terminal, cleaved) SRTSVQTEDDQLIAGQSARAIMAQLPQEQKAKIAEQVASFQEEKSKLDAEVSKWDDSGNDIIALAKQMCMIMMEMTDFTRGKGPLKNTSDVISAAKKIAEAGSRMDKLGRTIADHCPDSACKQDLLAYLQRIALYCHQLNICSKVKAEVQNLGGELVVSGVDSAMSLIQAAKNLMNAVVQTVKASYVASTKYQKSQGMASLNLPAVSWKMKAPEKKPLVKREKQDETQTKIKRASQKKHVNPVQALSEFKAMDSI |  | 2.6 | 0.7 | 0.568 | 0.0135 | 221000 | 20100 |  |  |  | 
8 | αEcat-ABD V796A (domain or fragment, source: E. coli BL21-CodonPlus, purified (glutathione-sepharose, thrombin cleavage, Superdex 75); not shown: GST, N-terminal, cleaved) SRTSVQTEDDQLIAGQSARAIMAQLPQEQKAKIAEQVASFQEEKSKLDAEVSKWDDSGNDIIVLAKQMCMIMMEMTDFTRGKGPLKNTSDVISAAKKIAEAGSRMDKLGRTIADHCPDSACKQDLLAYLQRIALYCHQLNICSKAKAEVQNLGGELVVSGVDSAMSLIQAAKNLMNAVVQTVKASYVASTKYQKSQGMASLNLPAVSWKMKAPEKKPLVKREKQDETQTKIKRASQKKHVNPVQALSEFKAMDSI |  | 3.7 | 1.8 | 0.773 | 0.0125 | 211000 | 6910 |  |  |  | 47
